US7192735B2, “Phosphopantetheinyl transferases and uses thereof” (President & Fellows of Harvard College, priority 1995, dated 2007)
Where “and” joins values, the source holds several entries; their conditions need not be identical. Equal entries are not always repeated. Entries after “also recorded” stand apart in the source; their conditions may differ. Where two headings read alike, the source gives them in different places.

What was measured:
E. coli FAS apo-ACP = E. coli FAS apo-ACP (Escherichia coli, UniProt P0A6A8); conditions: for phosphopantetheinylation of ACP: 25 μM ACP, 60 min at 37° C., FIG. 11
EntF = target: T1, EntF (Escherichia coli, UniProt P11454); test: [3H]-4'-phosphopantetheine incorporation into EntF; assay type: biochemical, E. coli; conditions: for time course of modification of EntF: EntD 100 nM, ACPS and o195 at 15-fold higher concentrations, FIG. 14A; for phosphopantetheinylation of EntF: FIG. 12
T1 construct: made in house
Description: A time course of EntD-catalyzed incorporation of radiolabel into EntF was performed.

[1] = system: His6-PCP (peptidyl carrier protein domain of TycA); test: [3H]-4'-phosphopantetheine transfer radioassay, His6-PCP substrate; conditions: for phosphopantetheinylation of His6-PCP: 25 μM His6-PCP, 60 min at 37° C., FIG. 11
SrfB1 [2] = target: T2, SrfB1 (Bacillus subtilis, UniProt Q04747); test: [3H]-4'-phosphopantetheine incorporation into SrfB1; assay type: biochemical; conditions: FIG. 12
T2 construct: hexa-histidine (His6, from pPROEX-1) (N); made in house; host or cells: E. coli AG1574 (plasmid pML 118)
Target sequence in this assay (P39135 whole entry): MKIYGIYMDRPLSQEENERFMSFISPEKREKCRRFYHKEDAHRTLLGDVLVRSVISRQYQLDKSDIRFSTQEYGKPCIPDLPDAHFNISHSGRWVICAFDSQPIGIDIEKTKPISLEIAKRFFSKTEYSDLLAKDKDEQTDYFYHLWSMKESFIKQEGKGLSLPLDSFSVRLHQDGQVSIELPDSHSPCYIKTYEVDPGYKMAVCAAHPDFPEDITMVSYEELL
Target sequence in this assay (Q04747 92-1307): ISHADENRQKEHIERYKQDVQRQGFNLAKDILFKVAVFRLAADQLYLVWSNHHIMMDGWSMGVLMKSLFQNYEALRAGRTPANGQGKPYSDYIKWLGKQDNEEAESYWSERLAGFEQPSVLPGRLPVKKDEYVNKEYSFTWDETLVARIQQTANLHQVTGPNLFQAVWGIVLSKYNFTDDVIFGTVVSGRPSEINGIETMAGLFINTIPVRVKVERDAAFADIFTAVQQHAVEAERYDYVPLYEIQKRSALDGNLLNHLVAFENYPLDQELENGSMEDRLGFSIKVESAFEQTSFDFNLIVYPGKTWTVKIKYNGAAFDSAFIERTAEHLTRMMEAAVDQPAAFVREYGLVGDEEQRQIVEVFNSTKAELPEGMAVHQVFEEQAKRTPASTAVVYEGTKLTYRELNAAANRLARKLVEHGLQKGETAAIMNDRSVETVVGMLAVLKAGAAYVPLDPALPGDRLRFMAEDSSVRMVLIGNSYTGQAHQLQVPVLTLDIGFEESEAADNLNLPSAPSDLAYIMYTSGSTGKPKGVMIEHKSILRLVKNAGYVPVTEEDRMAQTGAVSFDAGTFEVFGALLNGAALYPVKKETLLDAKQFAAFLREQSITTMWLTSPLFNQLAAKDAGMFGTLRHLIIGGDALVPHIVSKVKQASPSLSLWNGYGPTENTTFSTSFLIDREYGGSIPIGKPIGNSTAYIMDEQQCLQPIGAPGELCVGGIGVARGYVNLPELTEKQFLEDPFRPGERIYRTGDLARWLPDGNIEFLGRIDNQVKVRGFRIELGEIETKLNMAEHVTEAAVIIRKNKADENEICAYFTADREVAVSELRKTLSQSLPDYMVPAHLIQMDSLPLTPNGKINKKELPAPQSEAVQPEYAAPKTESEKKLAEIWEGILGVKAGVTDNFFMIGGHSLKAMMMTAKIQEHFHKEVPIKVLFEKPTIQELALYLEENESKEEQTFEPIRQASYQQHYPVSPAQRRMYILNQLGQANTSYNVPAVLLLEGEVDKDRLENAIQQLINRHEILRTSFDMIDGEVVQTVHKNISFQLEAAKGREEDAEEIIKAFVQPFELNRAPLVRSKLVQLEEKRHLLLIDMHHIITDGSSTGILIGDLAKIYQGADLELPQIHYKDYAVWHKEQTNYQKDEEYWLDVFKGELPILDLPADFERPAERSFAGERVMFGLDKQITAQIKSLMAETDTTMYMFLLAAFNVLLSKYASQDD

SrfB1 [3] = target: T2, SrfB1; test: [14C] amino acid activation by holo-SrfB1 formed with Sfp; assay type: biochemical; conditions: 2 μM apo-SrfB1, 1.3 μM Sfp, 200 μM CoASH, FIG. 15
Description: The reaction was performed as follows. Apo-SrfB1 (2 μM) was incubated with 200 μM CoASH, 75 mM Tris.HCl pH 8.0, 10 mM MgCl2, 25 mM DTT and 1.3 μM Sfp for 15 min at 37° C. to generate holo-SrfB1. To the SrfB1-Sfp reaction mixture, unlabeled amino acid (valine or aspartic acid) was added to 90 μM final concentration. ATP was added to a final concentration of 2 mM, followed by 0.5 μCi [^14C]Val (281 Ci/mol) or [^14C]Asp (207 Ci/mol). The reaction (115 μL) was incubated for 15 min at 37° C., then stopped by the addition of 800 μL 10% TCA with 15 μL of a 25 mg/mL BSA solution as carrier. The precipitate was collected by centrifugation, washed with 10% TCA, dissolved in 150 μL Tris base, and then counted by liquid scintillation.
Target sequence in this assay (Q04747 92-1307): as above

apo-Dcp = test: in vitro phosphopantetheinylation of D-Alanyl carrier protein; assay type: biochemical, Lactobacillus casei
Description: In another example, varying concentrations of apo-Dcp were incubated with ACPS at 37° C. to determine extent of phosphopantetheinylation.
The assays were incubated overnight at 37° C.
The [^3H] holo-Dcp formed was quantitated by dividing dpm by specific activity of pantetheinyl moiety of CoA which is equal to 4.83×10^14 dmp/mol.

Streptomycete ACPs = test: modification of apo-form of Streptomycete ACPs; assay type: biochemical
apo-ACP [4] = target: T3, apo-ACP (Escherichia coli, UniProt P0A6A8+P24224); conditions: for Km: steady-state kinetics, [3H]CoA radioassay
apo-ACP [5] = target: T3, apo-ACP; conditions: 50 μM apo-ACP, 1.8 μM ACPS, 210 μM [3H]CoA, 36 hour, 37° C., replicates

T3 sequence (P0A6A8 2-78, one chain of several): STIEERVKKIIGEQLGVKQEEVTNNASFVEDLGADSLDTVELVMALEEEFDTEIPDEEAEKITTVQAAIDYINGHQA
Sequence of E. coli FAS apo-ACP (P0A6A8 2-78): as the sequence (P0A6A8 2-78, one chain of several) above
Sequence of His6-PCP (peptidyl carrier protein domain of TycA) (P09095 528-602): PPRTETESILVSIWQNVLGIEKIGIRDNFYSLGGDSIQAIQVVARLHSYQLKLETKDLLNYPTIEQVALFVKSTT
T1 sequence (P11454 whole entry): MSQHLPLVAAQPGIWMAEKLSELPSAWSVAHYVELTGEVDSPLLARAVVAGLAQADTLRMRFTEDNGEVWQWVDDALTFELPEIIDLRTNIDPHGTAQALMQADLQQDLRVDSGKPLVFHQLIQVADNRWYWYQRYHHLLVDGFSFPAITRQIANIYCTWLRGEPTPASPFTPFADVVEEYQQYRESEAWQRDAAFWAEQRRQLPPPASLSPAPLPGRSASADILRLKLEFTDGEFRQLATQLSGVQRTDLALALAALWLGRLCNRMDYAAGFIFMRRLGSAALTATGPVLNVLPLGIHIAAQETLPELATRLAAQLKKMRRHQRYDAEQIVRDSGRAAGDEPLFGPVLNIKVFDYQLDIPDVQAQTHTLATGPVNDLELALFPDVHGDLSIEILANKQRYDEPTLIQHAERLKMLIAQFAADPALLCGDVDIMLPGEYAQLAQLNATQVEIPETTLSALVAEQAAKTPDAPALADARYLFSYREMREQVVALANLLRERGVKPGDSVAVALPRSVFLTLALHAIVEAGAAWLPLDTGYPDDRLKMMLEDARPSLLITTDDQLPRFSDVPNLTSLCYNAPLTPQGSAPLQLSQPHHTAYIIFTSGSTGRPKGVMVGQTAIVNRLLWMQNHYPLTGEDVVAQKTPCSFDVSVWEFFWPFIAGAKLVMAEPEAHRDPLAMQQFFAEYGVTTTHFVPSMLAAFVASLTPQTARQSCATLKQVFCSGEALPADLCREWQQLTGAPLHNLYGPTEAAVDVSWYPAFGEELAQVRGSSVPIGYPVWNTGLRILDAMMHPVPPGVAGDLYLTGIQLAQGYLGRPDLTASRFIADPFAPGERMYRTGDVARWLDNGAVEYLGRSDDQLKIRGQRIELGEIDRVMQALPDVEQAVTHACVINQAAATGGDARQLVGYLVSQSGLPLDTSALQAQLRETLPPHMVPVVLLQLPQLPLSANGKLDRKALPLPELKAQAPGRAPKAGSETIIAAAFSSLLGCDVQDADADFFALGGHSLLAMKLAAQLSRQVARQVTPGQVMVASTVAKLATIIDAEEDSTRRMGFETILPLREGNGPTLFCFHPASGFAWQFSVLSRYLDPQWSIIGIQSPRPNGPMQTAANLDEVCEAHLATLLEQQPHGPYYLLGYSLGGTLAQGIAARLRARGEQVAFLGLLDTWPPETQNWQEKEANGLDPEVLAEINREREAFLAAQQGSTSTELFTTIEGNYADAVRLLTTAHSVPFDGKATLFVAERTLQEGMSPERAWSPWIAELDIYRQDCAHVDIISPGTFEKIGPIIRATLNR

B1: EntD: E. coli protein (23.6 kD) involved in enterobactin biosynthesis, phosphopantetheinyl transferase (protein)
chain: SRQPIGIDIEEIFSVQTARELTDNIITPAEHERLADCGLAFSLALTLAFSAKESAFKASEIQTDAGFLDYQIISWNKQQVIIHRENEMFAVHWQIKEKIVITLCQHD
E. coli FAS apo-ACP
  phosphopantetheinylation of ACP: capable of transferring phosphopantetheine groups
EntF
  time course of modification of EntF: modified effectively
  phosphopantetheinylation of EntF: capable of phosphopantetheinylating
[1]
  phosphopantetheinylation of His6-PCP: capable of transferring phosphopantetheine groups

B2: o195: E. coli ORF protein of unknown function, homologous to ACPS, shown to phosphopantetheinylate substrates (protein)
chain: MYRIVLGKVSTLSAAPLPPGLREQAPQGPRRERWLAGRALLSHTLSPLPEIIYGEQGKPAFAPEMPLWFNLSHSGDDIALLLSDEGEVGCDIEVIRPRANWRWLANAVFSLGEHAEMDAVHPDQQLEMFWRIWTRKEAIVKQRGGSAWQIVSVDSTYHSSLSVSHCQLENLSLAICTPTPFTLTADSVQWIDSVN
E. coli FAS apo-ACP
  phosphopantetheinylation of ACP: capable of transferring phosphopantetheine groups
EntF
  time course of modification of EntF: almost no modification
[1]
  phosphopantetheinylation of His6-PCP: capable of transferring phosphopantetheine groups

B3: Sfp: B. subtilis protein (26.1 kD) involved in surfactin biosynthesis, shown to be a phosphopantetheinyl transferase (protein)
chain: VIGAFDSQPIGIDIEKTKPISLEIAKRFFSKTEYSDLLAKDKDEQTDYFYHLWSMKESFIKQEGKGLSLPLDSFSVRLHQDGQVSIELPDSHSPCYIKTYEVDPGYKMAVCAAHPDFPEDITMVSYEELL
EntF
  phosphopantetheinylation of EntF: can catalyze modification
SrfB1 [2]
  phosphopantetheinylation of SrfB1: capable of phosphopantetheinylating; also recorded: efficiently catalyzes modification
SrfB1 [3]
  increase of [14C]-L-valine-holo-SrfB1 covalent complex following incubation with Sfp: about 14 fold
[1]; 13 nM Sfp, 15 minute reaction, FIG. 13
  phosphopantetheinylation of PCP at different substrate concentrations: capable of phosphopantetheinylating a substrate, such as PCP, in a wide range of concentrations
[1]
  phosphopantetheinylation of His6-PCP: capable of transferring phosphopantetheine groups; also recorded: efficiently catalyzes modification

B4: ACPS: recombinant E. coli holo-acyl carrier protein synthase, 14 kDa dpj gene product overproduced in E. coli BL21(DE3)pDPJ (protein)
chain: MAILGLGTDIVEIARIEAVIARSGDRLARRVLSDNEWAIWKTHHQPVRFLAKRFAVKEAAAKAFGTGIRNGLAFNQFEVFNDELGKPRLRLWGEALKLAEKLGVANMHVTLADERHYACATVIIES
apo-Dcp
  phosphopantetheinylation of Dcp: capable of phosphopantetheinylating Dcp
apo-Dcp; 40 μM apo-Dcp, 1.8 μM ACPS, 210 μM [3H]CoA, 36 hour, 37° C., replicates
  radioactivity incorporated into the protein fraction, Dcp + ACPS: 1.04 × 10^6 (±0.93%) and 1.00 × 10^6 (±0.77%) and 0.98 × 10^6 (±0.95%)
apo-Dcp; varying apo-Dcp, 1.8 μM ACPS, overnight at 37° C., FIG. 4
  amount of holo-Dcp formed versus amount of apo-Dcp: increases linearly
Streptomycete ACPs
  modification of apo-form of Streptomycete ACPs (frenolicin, granaticin, oxytetracycline, tetracenomycin): modifies the apo-form
E. coli FAS apo-ACP; FIG. 14B
  time course of modification of apo-ACP: almost exclusive modification
EntF
  time course of modification of EntF: almost no modification
apo-ACP [4]
  substrate inhibition at apo-ACP concentrations: greater than 2 μM
apo-ACP [4]; purification from E. coli BL21(DE3)pDPJ, fraction Crude extract
  specific activity: 200 mU · mg^−1
apo-ACP [4]; purification from E. coli BL21(DE3)pDPJ, fraction DE-52
  specific activity: 250 mU · mg^−1
apo-ACP [4]; purification from E. coli BL21(DE3)pDPJ, fraction SP-Sepharose
  specific activity: 320 mU · mg^−1
apo-ACP [4]; purified protein, >95% purity
  specific activity: 320 mU/mg
apo-ACP [4]; read-out: Km value for CoA
  Km: 50 µM
apo-ACP [4]; read-out: Km value for apo-ACP (upper limit)
  Km: ≤ 1 µM
apo-ACP [4]; saturating CoA and 50 μM apo-ACP
  apparent kcat value: about 10 min^−1
apo-ACP [5]
  radioactivity incorporated into the protein fraction, ACP + ACPS: 2.21 × 10^6 (±.63%) and 2.13 × 10^6 (±.65%) and 2.20 × 10^6 (±.64%)
